The labels stand for the following.
B1: hu6D9_57A3 (antibody, V domains shown)
VH: QVQLVESGGGVVQPGRSLRLSCAVSGFSLTSYGVQWVRQAPGKGLEWLGVIWSSGSTDYNAAFLSRLTISKDNSKNTVYFQMNSLRAEDTAVYYCARDVTTIVEGFAHWGQGTLVTVSS
VL: DIQMTQSPSSLSASVGDRVTITCKASEKVGTYVSWYQQKPGKAPKLLIYGASNRYTGVPSRFSGSGSGTDFTLTISSLQPEDFATYYCGQTYSYPFTFGQGTKLEIK
notes: Humanized 6D9
B2: hu6D9_66B1 (antibody, V domains shown)
VH: B1 VH with S28T, L29F, T30S
VL: B1 VL
notes: Humanized 6D9
B3: hu6D9_66C2 (antibody, V domains shown)
VH: B1 VH with Q1E, V11L, R16G, N73T
VL: B1 VL with G66R, L104V
notes: Humanized 6D9
B4: hu6D9_57A4 (antibody, V domains shown)
VH: B1 VH with G9P, G49A, N76S
VL: B1 VL
notes: Humanized 6D9
B5: 7G7_44C6 (antibody, V domains shown)
VH: QVQLQESGPGLVKPSETLSLTCTVSGGSISHYYWSWIRQPPGKGLEWIGYIYYSGPTNYNPSLKSRVTISVDTSKNQFSLKLSSVTAADTAVYYCARTYYYGSGSFPDAFDIWGQGTMVTVSS
VL: KIVLTQSPATLSLSPGERATLSCRASQSVSSYLAWYQQTPGQAPRLLIYDASNRATGIPARFSVSGSGTDFTLTISSLEPEDFAVYYCQQRSSWPLTFGGGTKLEIK
notes: Fully human antibody
B6: 12B5_44B1 (antibody, V domains shown)
VH: QVQLVQSGAEVKKPGSSMKVSCKASGDTFSSYAISWVRQAPGQGLEWMAGIIPVFGTAHNAQKFQGRVTITADKSTSTAYMELSSLRSEDTAVYYCTRGGPYFDYWGQGTLVTVSS
VL: EIVMTQSPATLSVSPGERAALSCRASQSVSSNLAWYQQKPGQAPRLLIYGVSTRATGIPDRFNGSGSGTEFTLTISSLQSEDFGAYYCQQYKKWPFIFGPGTKLEIK
notes: Fully human antibody
B7: 14D6_60B5 (antibody, V domains shown)
VH: QVQLVHSGAEVKRPGSSVKVSCKASGGTFSSYAISWVRQAPGQGLEWMGGIIPIFGIANYAQKFQGRVTIIADKSTRTAYMELSSLRSEDTAVYYCARGGPYFDYWGQGILVTVSS
VL: B6 VL with A20T, V51A, D60A, N63S, G84A, A85V, K92N, I97T, L104V, E105D
notes: Fully human antibody
B8: 16H12_60B4 (antibody, V domains shown)
VH: B7 VH with L4V, H6Q, R13K, G27D, S31N, A58T, A97S
VL: B6 VL with A20T, V51A, D60A, N63S, G84A, A85V, I97T, L104V, E105D
notes: Fully human antibody
B9: 13H9_44D2 (antibody, V domains shown)
VH: QVQLQESGPGLVKPSETLSLTCTVSGGSISSYYWSWIRQPPGKGLEWIGYIYYSGSTNNNPSLKSRVTISVDTSKNQFSLKLISVTAADTAVYYCARVYNNYDWGFDYWGQGTLVTVSS
VL: EIVMTQSPATLSVSPGERATLSCRASQSVSSNLAWYQQKPGQAPRLLIYGASTRATGIPARFSGSGSGTEFTLTIRSLQSEDFAVYYCQQYHNWPLTFGGGTKLEIK
notes: Fully human antibody

Numbering of substitutions follows the chain as printed.

For one assay, the target named is T1, recombinant human VTCN1-his protein (human, UniProt Q7Z7D3 25-259, limits assumed).
T1 construct: also called human VTCN1 protein; recombinant VTCN1
T1 sequence: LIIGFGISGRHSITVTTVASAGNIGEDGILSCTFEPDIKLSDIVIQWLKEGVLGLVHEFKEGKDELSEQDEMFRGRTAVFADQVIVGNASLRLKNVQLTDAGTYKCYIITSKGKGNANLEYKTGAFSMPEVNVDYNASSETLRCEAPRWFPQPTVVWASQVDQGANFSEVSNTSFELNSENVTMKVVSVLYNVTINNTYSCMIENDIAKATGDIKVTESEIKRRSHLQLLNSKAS
Kind of assay: BLI (OCTET), human VTCN1 protein.
Usually Kd stands for the concentration at which binding is half-saturated. Take B1: the Kd is 28 nM.
On to B2, for which the Kd is 27 nM.
For B3, the equilibrium dissociation constant (Kd) worked out at 44 nM.
Consider B4, for which the Kd is 36 nM.

The next assay deals with T1, recombinant human VTCN1-his protein. Briefly: BLI (OCTET), human VTCN1 protein. The source holds these as a separate data set.
Take B5: the Kd came to 192 nM.
Consider B6, for which the Kd is 2 nM.
With B7, the Kd is 5 nM.
B8: the Kd stood at 0.7 nM.
B9: the dissociation constant Kd amounted to 128 nM.

For the next assay, the target named is T2, mouse VTCN1 protein (mouse, UniProt Q7TSP5 25-257, limits assumed).
T2 construct: The construct and its tag are not described
T2 sequence (looked up): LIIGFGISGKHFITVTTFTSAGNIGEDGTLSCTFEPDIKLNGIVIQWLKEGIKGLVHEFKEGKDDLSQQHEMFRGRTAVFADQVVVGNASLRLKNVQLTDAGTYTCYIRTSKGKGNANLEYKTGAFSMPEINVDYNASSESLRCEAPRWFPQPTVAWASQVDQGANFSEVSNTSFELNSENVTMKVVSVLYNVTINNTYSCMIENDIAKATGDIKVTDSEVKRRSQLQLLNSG
Kind of assay: BLI (OCTET), mouse VTCN1 protein.
On to B6, for which the affinity, expressed as Kd, was 38 nM.
Turning to B7, the Kd stood at 56 nM.
The molecule B8 showed a Kd of 27 nM.
On the same count and under the same terms, then B9, with 268 nM.

For a further assay, the target named is T3, cynomolgus monkey VTCN1 protein (cynomolgus monkey, UniProt A0A2K5U6P5 25-259).
T3 construct: The construct and its tag are not described; also called cyno VTCN1
T3 sequence: T1 sequence with L53I
Briefly: BLI (OCTET), cynomolgus monkey VTCN1 protein.
The molecule B6 gave a Kd of 2 nM.
Still for that read-out and setting: as for B7, the figure is 5 nM.
B8 registered a Kd of 1 nM.

In another assay the target is T4, human VTCN1 expressed on cells (293-VTCN1 cells; SKBR3, MX-1 and ZR-75-1 cells that express it naturally) (human, UniProt Q7Z7D3 25-282).
T4 construct: The cDNA was bought from Origene
T4 sequence: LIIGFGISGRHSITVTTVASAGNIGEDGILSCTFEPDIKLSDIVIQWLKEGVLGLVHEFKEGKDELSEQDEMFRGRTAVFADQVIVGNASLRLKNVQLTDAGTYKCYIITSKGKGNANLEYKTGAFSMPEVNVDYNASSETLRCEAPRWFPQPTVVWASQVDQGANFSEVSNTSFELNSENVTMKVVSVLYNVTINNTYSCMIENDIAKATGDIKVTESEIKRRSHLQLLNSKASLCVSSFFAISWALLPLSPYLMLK
Kind of assay: flow cytometry, antibody titration on 293-huVTCN1 cells. Background: Flow cytometry measures light scatter and fluorescence of single cells or particles in a stream.
The EC50 is the midpoint of the concentration-response curve. The molecule B5 registered an EC50 of 2.2 nM.
The same measure, in the same setting: then B6, with 9 nM; and B7, with 4.6 nM; and B8, with 1.7 nM.
In turn, B9 showed a half-maximal effective concentration (EC50) of 1.2 nM.

The target of another assay is T5, mouse VTCN1 expressed on 293 cells (mouse, UniProt Q7TSP5 25-257).
T5 construct: whole, on cells
T5 sequence (looked up): T2 sequence (looked up)
Briefly: flow cytometry, antibody titration on 293-muVTCN1 cells.
As to B5, the midpoint of the response, the EC50, lay at 45 nM.
As for B6, the concentration for a half-maximal effect (EC50) turned out to be 28.5 nM.
For the molecule B7, the EC50 came out at 11.4 nM.
Turning to B8, the midpoint of the response, the EC50, lay at 4.8 nM.
In turn, B9 gave an EC50 of 1.8 nM.

The target of a further assay is T6, cynomolgus monkey VTCN1 expressed on 293 cells (cynomolgus monkey, UniProt A0A2K5U6P5 25-282).
T6 construct: whole, on cells
T6 sequence: T4 sequence with L53I, F242L, S252A
Briefly: flow cytometry, antibody titration on 293-cynoVTCN1 cells.
B6: a half-maximal response (EC50) required 9 nM.
As to B7, it took 5.1 nM to reach a half-maximal effect (EC50).
In the case of B8, the EC50 is 2.1 nM.

Another assay deals with T4, human VTCN1 expressed on cells …. Briefly: flow cytometry, antibody titration on SKBR3 cells (endogenous VTCN1).
As for B5, a half-maximal effect (EC50) was put at 36.8 nM.
On to B6, for which the half-maximal effective concentration (EC50) was 35.5 nM.
Consider B7, for which the EC50 was 51.4 nM.
In turn, B8 displayed an EC50 of 4 nM.
Still for that read-out and setting: then B9, with 1.9 nM.

These data come from US20240294644A1 (BLUEFIN BIOMEDICINE, published 2024).
